From patent publication US20240218057A1 (ROCKEFELLER UNIVERSITY, published 2024) come the findings set out here.

The target of assay [1] is T1, SARS-CoV-2 receptor-binding domain (WT RBD; S protein residues 319-539) (SARS-CoV-2, UniProt P0DTC2 319-539).
T1 construct: also called SARS-COV-2 RBD
As to the kind of experiment: BLI (Octet Red), IgG on protein A biosensor, WT RBD in solution, 1:1 fit.

The target in assay [2] is SARS-COV-2 RBD (SARS-COV-2, UniProt P0DTC2 319-539). As to the kind of experiment: ELISA, RBD coated.

B1: C1010 (antibody, V domains shown)
VH: QVQLVESGGGVVQPGRSLRLSCAASGFTFSSYAMHWVRQAPGKGLEWVAVISYDGSNKYYADSVKGRFTISRDNSKNTLYLQMNSLRAEDTAVYYCAKKGQPYCGGDCYFYYFDYWGQGTLVTVSS
VL: DIQMTQSPSSLSASLGDRVTITCQASQDISNYLNWYQQKPGKAPKLLIYDASNLETGVPSRFSGSGSGTDFTFTISSLQPEDIATYYCQQYDNLPPITFGQGTRLEIK
Turning to B1, the Kd in assay [1] is 62.5 nM.

B2: C1011 (antibody, V domains shown)
VH: QVQLVESGGGVVQPGRSLRLSCAVSGFTFSHYAMHWVRQAPGKGLEWVAVISYDGADKYYADSVRGRFTIARDNSKNTLFLQMSSLRPEDTAVYYCAKKGQPYCGGDCHFYYLDYWGQGTLVTVSS
VL: DIQMTQSPSSLSASVGDRVTITCQASQDISNHLNWYQQKPGKAPKLLIYDASNLETGVPSRFSGSGSGTDFTFTISSLQAEDIATYYCQQYDNLPPITFGQGTRLEIK
In turn, B2 gave a Kd in assay [1] of 0.0833 nM. Against the preceding molecule, the Kd is about 750-fold lower.

B3: C539 (antibody, V domains shown)
VH: EVQLVESGGGLVQPGRSLRLSCAASGFTFDDYALHWVRQAPGKGLEWVSGISWNGDSIGYADSVKGRFTISRDNAKNSLSLQMNSLTAEDTALYYCAKGVEYSSSSNCDYWGQGTLVTVSS
VL: DIQMTQSPSSVSASVGDRVTITCRASQDISSWLAWYQQKPGKAPKLLISLASGLQSGVPSRFSGSGSETDFTLTISSLQPEDFATYYCQQTNSFPLTFGGGTKVEI
For B3, the EC50 in assay [2] came out at 1.3 ng/mL.

B4: C542 (antibody, V domains shown)
VH: EVQLVESGGGLVQPGGSLRLSCAASGLTVTSNYMSWVRQAPGRGLEWVSLIYPGGTTYYADSVKGRFTVSRDNSKNTLYLQMDSLRAEDTGVYYCARETLGRGGDCWGQGTLVTVSS
VL: DIQMTQSPSSLSASVGDRVTITCQASQDISNFLNWYQQKPGKAPKLLIYDASNLETGVPSRFSGSRSGTDFTFTISSLQPDDIATYYCQQYDNLPRSFGQGTKLEIK
Regarding B4, the EC50 in assay [2] came out at 1.07 ng/mL.

B5: C094 (antibody, V domains shown)
VH: QVQLQESGPGLVKPSETLSLTCNVSGVSISTDYWSWIRQPPGKGLEWIGYIYYSGNTKDYNPSLKSRVTISVDTSKNQFSLMLSSVTAADTAVYYCARHYDILTSLSWFDPWGQGTLVTVSS
VL: QSVLTQPPSVSAAPGQKVTISCSITNSNLGNIYVSWYQQLPGTAPKLLIYGNNKRPSGIPDRFSGSKSGTSATLGITGLQTGDEAHYYCGTWDSSLSANWVFGGGTKLTVL
As to B5, in assay [2], the EC50 is 1.67 ng/mL.

B6: C514 (antibody, V domains shown)
VH: EVQLVESGGGLVQPGGSLRLSCAASEFIVTRNYMSWVRQAPGKGLEWVSLIYPGGSTFYADSVKGRFTISRDNSKNTLFLHMNSLRAEDTAVYYCARDLAGRLDYWGQGTLVTVSS
VL: DIQMTQSPSSLSASVGDRVTITCQASQDINNFLNWYQQKPGKAPKLLIYDASNLETGVPSRFSGSGSGTDFTFTISSLQPEDIAIYYCQQYDSLSRLTFGGGTKVEIK
Molecule B6 returned an EC50 in assay [2] of 0.82 ng/mL. Compared with the last molecule, the EC50 is about 2-fold lower.

B7: C547 (antibody, V domains shown)
VH: QVQLVESGGGVVQPGRSLRLSCAASGFTFSSYGMHWVRQAPGKGLEWVAVISYDGSNKYYADSVKGRFTISRDNSKNTLYLQMNSLRAEDTAVYYCAKDTPGGDDILTGWGLYGMDVWGQGTTVTVSS
VL: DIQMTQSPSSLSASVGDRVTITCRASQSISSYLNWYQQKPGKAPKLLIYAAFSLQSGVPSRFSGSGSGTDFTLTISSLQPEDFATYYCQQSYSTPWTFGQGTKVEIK
Molecule B7 returned an EC50 in assay [2] of 1.78 ng/mL.

B8: C543 (antibody, V domains shown)
VH: QVQLVESGGGVVQPGRSLRLSCTASGFTFSTAGMHWVRQAPGKGLEWVAVISYDGSNKDYADSVKGRFTISRDNSKSTLYLQMNSLRPEDTAVYYCAKDTPGGDDIMTGWGLYGMDVWGQGTTVTVSS
VL: DIQMTQSPSSLSASVGDRVTITCRASQSISSYLNWYHQKPGKAPKLLIYAAISLQSGVPSRFSGSGFGTDFTLTISSLQPEDFAIYYCQQSYSTPWTFGQGTKVEIK
The molecule B8 had an EC50 in assay [2] of 1.28 ng/mL.

B9: C088 (antibody, V domains shown)
VH: QVQLVQSGAEAKKPGASVKVSCKTSGYTFTNYFMHWVRQAPGQGPEWMGIIDSSDGGASYAQKFQGRVTMTRDTSTSTVYMELRSLKFEDTAVYYCARASTSTTSWSDALSLGSWGQGTLVTVSS
VL: QSVLTQPPSVSGAPGQRVTISCTGSSSNIGGGSVVHWYQQLPGTAPKLLIYANSNRPSGVPDRFSGSKSGTSASLAIAGLQAEDEADYYCQSWDNGLSASGVVFGGGTKLTVL
Molecule B9 gave an EC50 in assay [2] of 2.44 ng/mL.

B10: C513 (antibody, V domains shown)
VH: EVQLLESGGGLVQPGGSLRLSCVASGFSFSTYAMSWVRQAPGQGLEWVSTITGTSIGTYYADSVKGRFTISRDNSKNTVFLQMKSLRAEDAAVYYCANHPLASGDEYYYYYMDVWGKGTTVTVSS
VL: EIVLTQSPDTLSLSPGERATLSCRASQSVHSKQLAWYQQKPGQAPRLLIYGASSRATGIPDRFSGSGSGTDFTLTISRLEPEDFAVYYCQQYGSIRALTFGGGTKVEIK
Turning to B10, the EC50 in assay [2] came to 1.31 ng/mL.

B11: C537 (antibody, V domains shown)
VH: QLQLQESGPGLVKPSETLSLTCTVSGGAISSRNYHWGWIRQPPGKGLEWIGSIYYSGSTYYSPSLKSRVTISVDTSKNQFSLRLSSVTAADTAVYYCARLETSGWYTEDVFDIWGQGTMVTVSS
VL: DIQMTQSPSSLSASVGDRVTITCRASQSISSYLNWYQQKPGKAPKLLIYAASSLQSGVPSRFSGSGSGTDFTLTISSLLPEDFATYYCQRSYSAMYTFGQGTKLEIK
The molecule B11 came in with an EC50 in assay [2] of 41.9 ng/mL.

B12: C046 (antibody, V domains shown)
VH: EVQLVESGGGLAQPGRSLRLSCAASGFTFDDYAMHWVRQAPGKGLEWVSGINWNSGSLGYADSVKGRFTISRGIAKNSLYLQMNSLRPEDTAFYYCAKAGVRGIAAAGPDLNFDYWGQGTLVTVSS
VL: EIVLTQSPATLSLSPGERATLSCRASQSVSSYLAWYQQKPGQAPRLLIYDASNRATGIPARFIGSGSGTDFTLTISSLEPEDFAVYYCQQRITFGQGTRLEIK
Turning to B12, in assay [2], the EC50 came out at 4.02 ng/mL.

B13: C533 (antibody, V domains shown)
VH: EVQLVESGGSLVKPGGSLRLSCVASGLTFNHAWMSWVRQAPGKGLEWVGRIKSKIDGGTTDYAAPVKGRFTISRDDSKSTQYLQMNSLKTEDTAVYYCTTDCFWRLGGTTCYEHDAFDVWGQGTMVTVSS
VL: DIQMTQSPSSLSASVGDRVTITCRASQAIATFLNWYQQKPGKAPKLLIYAASSLQSGVPSRFSGSGSGTDFTLTISNLQPEDFATYYCQQSYNSLHFGGGTKVEIK
In turn, B13 yielded an EC50 in assay [2] of 1.61 ng/mL. Against the preceding molecule, the EC50 is about 2.5-fold lower.

B14: C069 (antibody, V domains shown)
VH: QVQLVQSGAEVKKPGSSVNVSCKASGGTFSTYAIHWVRQAPGQGLEWMGGIIPLFHTANYAQKFQGRVTITADESTSTAYMELSSLRSEDTAMYYCAINTQWDLVPRWGRGTLVTVSS
VL: EIVLTQSPGTLSLAPGERATLSCRASQSVNSNYLAWYQQKPGQAPRLLIYGASSRATGIPDRFSGSGSGTDFTLTISRLEPEDFAVYYCQQYGFSLYSFGQGTKLEIK
Molecule B14 yielded an EC50 in assay [2] of 381 ng/mL. This EC50 is about 240-fold higher than that of the molecule before.

B15: C534 (antibody, V domains shown)
VH: QVQLVQSGAEVKKPGSSVRVSCKASGGTFSRNVISWVRQAPGQGLEWMGGIIPMFATANYAQKFQGRVTITADESSSTAYMELSSLRSEDTAVYYCAREDFILVSAPIRENSYYYYGMDVWGQGTTVTVSS
VL: EIVLTQSPGTLSLSPGERATLSCRASQSVSSNYLAWYQQKPGQAPRLLIYDASSRATGIPDRFSGSGSGTDFTLTISRLEPEDFAVYYCQQYGGSPRTFGQGTKVEIK
As to B15, in assay [2], the EC50 amounted to 4.85 ng/mL.

B16: C840 (antibody, V domains shown)
VH: QVQLVESGGGVVQPGRSLRLSCEASGFTFTAYAMHWLRQAPGKGLEWVAVILNDGSNKLYADSVKGRFTVSRDNSKNMLYLQVNSLRVDDTAVYYCARDGSVDTLMVTWFDYWGQGTLVTVSS
VL: DIQMTQSPSSLSASVGDRVTITCRASQSVNNYLNWYQQKPGQAPKLLIYAASSLQSGVPLRFSGSGSGTDFALTITSLHTEDFATYYCQQSYNTPPWTFGPGTKVEIK
In assay [1], B16 gave a Kd of 5.56 nM.

B17: C521 (antibody, V domains shown)
VH: EVQLVESGGGLVRPGGSLTLSCVASGFTVGSNFMSWVRQAPGKGLEWVSLIYNSGGTHYADSVKGRFTISRDRSKNTLYLQMNSLRAEDTAIYYCANHGYYYYMDVWGKGTTVTVS
VL: QSALTQPASVSGSPGQSITISCTGTGSDIGAYNYVSWHQHHPGKAPKLIIYDVSNRPSGVSNRFSGSKSGNTASLTISGLQAEDEADYYCTSYTNTTTPWVFGGGTKVTVL
Consider B17, for which the EC50 in assay [2] turned out to be 6.9 ng/mL.

B18: C518 (antibody, V domains shown)
VH: EVQLVESGGGLIQPGGSLRLSCAASGITVSSNYMSWVRQAPGKGLEWVSVMYAGGSSFYADSVKGRFTISRDNSKNTLYLQMNSLRVEDTAVYYCARDLIALGVDVWGQGTTVTVSS
VL: DIQLTQSPSFLSASVGDRVTITCRASQGISSYLAWYQQKPGKAPKLLIYAASTLQSGVPSRFSGSGSGTEFTLTISSLQPEDFATYYCQLLNSYPMCSFGQGTKLEIK
In assay [2], B18 displayed an EC50 of 1.13 ng/mL.

B19: C080 (antibody, V domains shown)
VH: EVQLVQSGAEVKKPGESLNISCKASGYSFTIYWIAWVRQLPGKGLEWMGIIYPGDSDTRYSPSFQGQVTISADKSISTAYLQWRSLKASDSAVYYCARGVAVDWYFDLWGRGTLVTVSS
VL: QSVLTQPPSVSGAPGQRVTISCAGSSSNIGAGFDVYWYQQLPGTAPKLLIYGNNNRPSGVPDRFSGSKSGTSASLAITGLQAEDEADYYCQSSGSVLSDLYVFGTGTKVTVL
B19: in assay [2], the EC50 came out at 1.97 ng/mL.

B20: C841 (antibody, V domains shown)
VH: EVQLVESGGGLVQPGGSLRLSCAASGFTFSIFSMNWVRQAPGKGLEWISYISSSSGSRHYADSVKGRFTISRDNAKNSLYLQMNNLRDEDTAMYYCAREAHDGALTGYGDYLNWFDPWGQGVLVTVSS
VL: SYELTQPPSVSVAPGKTARIPCGGDSVGSKSVHWYQQKSGQAPVLVIHSDSDRPSGIPERFSGSNSGNTATLTITGVAAGDEADYYCHVWDTIGDRFYWVFGGGTKLTVL
As to B20, the Kd in assay [1] was found to be 1.64 nM.

B21: C538 (antibody, V domains shown)
VH: QLQLQESGPGLVKPSETLSLTCTVSGGSISSSSYYWAWIRQPPGKGLEWIGNIYYSGITYYSPSLKSRVTISVDTSKNQFSLKLRSVTAADTAVYYCARQHRYGSGSSELLWGQGTLVTVSS
VL: QSALTQPPSASGSPGQSVTISCTGTSSDVGSYNYVSWYQQHPGKAPKLMIYEVTKRPSGVPDRFSGSKSGNTASLTVSGLQADDEADYYCSSYAGSSNLIFGGGTKLTVL
Regarding B21, a half-maximal effect in assay [2] (EC50) was put at 3.94 ng/mL.
